Laboratory results: patent publication US20030180744

Assays:
PDGF-AB (Homo sapiens) = PDGF-AB (Homo sapiens) (UniProt P04085+P01127); assay: filter; conditions: 2'-F pyrimidines; +/-7; random pool
[1] = target: T1, KGF (hKGF) (Homo sapiens) (UniProt P21781); assay: filter
T1 sequence: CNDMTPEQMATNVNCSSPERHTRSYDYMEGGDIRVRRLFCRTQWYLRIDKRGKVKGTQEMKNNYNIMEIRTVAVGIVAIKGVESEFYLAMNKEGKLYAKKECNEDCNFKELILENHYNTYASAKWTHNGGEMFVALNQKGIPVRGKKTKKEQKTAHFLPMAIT

[2] = target: T1, KGF (hKGF) (Homo sapiens); assay: FP; conditions: 2'-F pyrimidines; method is nitrocellulose filter binding; DPBS, 37 C
[3] = target: T1, KGF (hKGF) (Homo sapiens); assay: competition; conditions: 2'-F pyrimidines, PC-3 cells

PDGF-AB (Homo sapiens), sequence (P01127 82-190, chain 2 of 2, other chains not shown): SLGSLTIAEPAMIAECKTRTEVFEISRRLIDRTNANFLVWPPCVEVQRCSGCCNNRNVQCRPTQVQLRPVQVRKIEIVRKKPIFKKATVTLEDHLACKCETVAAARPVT

Sequence: GGGAGACAAGAAUAACGCUCAANNNNNNNNNNNNNNNNNNNNNNNNNNNNNNNNNNNNNNNNNNNNNNNNNNUUCGACAGGAGGCUCACAACAGGC [random 2'-F RNA 50N]
- Kd (PDGF-AB (Homo sapiens)): 35 nM

Sequence: GGGAGGACGAUGCGGAACGGAGAUGUCCCCUCAAMAUUUACCGUCUCCGUUUGCGCCCCAGACGACUCGCCCGA [31F]
- Kd ([1]; 2'-F pyrimidines, DPBS, 37 C): 1 nM

Sequence: GGGAGGACGAUGCGGCAANNNNNNNCUCUCUCCUGGCGUUCCGCAACCCGCCCCCAGACGACUCGCCCGA [19F]
- Kd ([1]; 2'-F pyrimidines, second column 0.94-2.57, DPBS, 37 C): 1.6 nM

Sequence: GGGAGGACGAUGCGGCAGUCUCCCUAGGUUUCAUCUCUGCAGCAUUCCGGGGUNCCAGACGACUCGCCCGA [51F]
- Kd ([1]; 2'-F pyrimidines, DPBS, 37 C): 1.27 nM

Sequence: GGGAGGACGAUGCGGGAAUUAACAGGGCCAGAAUUCUCAUCUNNCUUCCCGUGACCCAGACGACUCGCCCGA [12F]
- Kd [2]: 1.38 nM

Sequence: GGGAGGACGAUGCGGGAAUUCCCAGCGCUUGACUGAUACAAACNUUCCCGUGCCCCAGACGACUCGCCCGA [16F]
- Kd ([1]; 2'-F pyrimidines, biphasic, high affinity 49%, Kd2 3.39 nM): 0.83 nM

Sequence: GGGAGGACGAUGCGGGGACAAWYAGCGGUGUCUUUUCAUUUNKAUCCUCCGACRUCCCAGACGACUCGCCCGA [56F]
- Kd ([1]; 2'-F pyrimidines, biphasic, high affinity 32%, Kd2 3.00 nM, PC-3 Ki 0.16 nM): 0.07 nM
- IC50 [3]: 1 nM
- Ki ([3]; 27.4 nM on NIH3T3/FGFR-2): 0.16 nM

Sequence: GGGAGGACGAUGCGGNGACUGAUUUUUCCUUGNCAGUGUAAUUUCCUGGCUGCCCCAGACGACUCGCCCGA [38F]
- Kd ([1]; 2'-F pyrimidines, DPBS, 37 C, PC-3 Ki 0.22 nM): 0.33 nM
- IC50 [3]: 0.6 nM
- Ki ([3]; 20 nM on NIH3T3/FGFR-2): 0.22 nM

Sequence: GGGAGGACGAUGCGGNNNNNNNNNNNNNNNNNNNNNNNNNNNNNNNNNNNNNNNNCAGACGACUCGCCCGA [random 2'-F RNA 40N7]
- Kd ([1]; 2'-F pyrimidines, random pool): 30 nM

Sequence: GGGAGGACGAUGCGGNNNNNNNNNNNNNNNNNNNNNNNNNNNNNNNNNNNNNNNNCAGACGACUCGCCCGA [random 2'-NH2 RNA 40N7]
- Kd ([1]; 2'-NH2 pyrimidines, random pool): 30 nM

Sequence: GGGAGGACGAUGCGGUCGAGUGUUCUCCUUCGGUAACUAUUNNNNAUUUCGUGCCCAGACGACUCGCCCGA [44F]
- Kd ([1]; 2'-F pyrimidines, DPBS, 37 C): 1.32 nM
